Source: publication doi:10.1101/2021.12.25.474155

Molecular target: NCAP (SARS-CoV-2) (UniProt P0DTC9)
Test: EMSA

Sequence | Kd
GGCUGUGUGGCUGUCACUCGGCUGCAUGCUUAGUGCACUCACGCAGUAUAAUUAAUAACUAAUUACUGUCGUUGACAGGACACGAGUAACUCGUCUAUCUUCUGCAGGCUGCUUACGGUUUCGUCCGUGUUGCAGCCGAUCAUCAGCACAUCUAGGUUUCGUCCGGGUGUGACCGAAAGGUAAGAUGGAGAGCCUUGUCCCUGGUUUCAACGAGAAAACACACGUCCAACUCAGUUUGCCUGUUUUACAGGUUCGCGACGUGCUCGUACGUGGCUUUGGAGACUCCGUGGAGGAGGUCUUAUCAGAGGCACGUCAACAUCUUAAA [F323] | 29 nM
GGAUUAAAGGUUUAUACCUUCCCAGGUAACAAACCAACCAACUUUCGAUCUCUUGUAGAUCUGUUCUCUAAACGAACUUUAAAAUCUGUGUGGCUGUCACUCGGCUGCAUGCUUAGUGCACUCACGCAGUAUAAUUAAUAACUAAUUACUGUCGUUGACAGGACACGAGUAACUCGUCUAUCUUCUGCAGGCUGCUUACGGUUUCGUCCGUGUUGCAGCCGAUCAUCAGCACAUCUAGGUUUCGUCCGGGUGUGACCGAAAGGUAAGAUGGAGAGCCUUGUCCCUGGUUUCAACGAGAAAACACACGUCCAACUCAGUUUGCCUGUUUUACAGGUUCGCGACGUGCUCGUACGUGGCUUUGGAGACUCCGUGGAGGAGGUCUUAUCAGAGGCACGUCAACAUCUUAAA [F406] | 1.2 nM
